In assay [1] the target is T1, Human VEGFR2-Fc (Sino Biological) (human, UniProt P35968 20-764).
T1 construct: Bought; not shown: Fc part of a bought fusion protein
Nature of the assay: antigen binding activity, summary table; assay not named on the sheet.

Assay [2] concerns the target T1, Human VEGFR2-Fc (Sino Biological). As to the kind of experiment: ELISA, plate coated with human VEGFR2-Fc 1ug/ml, anti-His-HRP detection.
Assay [3] deals with T2, hEGFR-Fc (Sino Biological) (human, UniProt P00533 25-645).
T2 construct: Bought; also called human EGFR; humans EGFR-Fc protein; not shown: Fc part of a bought fusion protein
As to the kind of experiment: antigen binding activity, summary table; assay not named on the sheet.

Assay [4] concerns the target T2, hEGFR-Fc (Sino Biological). Nature of the assay: ELISA, plate coated with human EGFR-Fc, anti-His-HRP detection. (ELISA stands for enzyme-linked immunosorbent assay.)
For assay [5], the target named is T3, human ErbB2/Her2-Fc (Acro biosystem) (human, UniProt P04626 23-652).
T3 construct: Bought; also called human HER2; not shown: Fc part of a bought fusion protein
As to the kind of experiment: ELISA, plate coated with human ErbB2/Her2-Fc.

The target in assay [6] is T4, human ErbB3/Her3-Fc (Acro biosystem) (human, UniProt P21860 20-643).
T4 construct: Bought; also called human HER3; not shown: Fc part of a bought fusion protein
Nature of the assay: ELISA, plate coated with human ErbB3/Her3-Fc.

Assay [7] has as its target T5, human CEACAM5-Fc (novoprotein) (human, UniProt P06731 35-685, limits assumed).
T5 construct: Bought; not shown: Fc part of a bought fusion protein
T5 sequence (looked up): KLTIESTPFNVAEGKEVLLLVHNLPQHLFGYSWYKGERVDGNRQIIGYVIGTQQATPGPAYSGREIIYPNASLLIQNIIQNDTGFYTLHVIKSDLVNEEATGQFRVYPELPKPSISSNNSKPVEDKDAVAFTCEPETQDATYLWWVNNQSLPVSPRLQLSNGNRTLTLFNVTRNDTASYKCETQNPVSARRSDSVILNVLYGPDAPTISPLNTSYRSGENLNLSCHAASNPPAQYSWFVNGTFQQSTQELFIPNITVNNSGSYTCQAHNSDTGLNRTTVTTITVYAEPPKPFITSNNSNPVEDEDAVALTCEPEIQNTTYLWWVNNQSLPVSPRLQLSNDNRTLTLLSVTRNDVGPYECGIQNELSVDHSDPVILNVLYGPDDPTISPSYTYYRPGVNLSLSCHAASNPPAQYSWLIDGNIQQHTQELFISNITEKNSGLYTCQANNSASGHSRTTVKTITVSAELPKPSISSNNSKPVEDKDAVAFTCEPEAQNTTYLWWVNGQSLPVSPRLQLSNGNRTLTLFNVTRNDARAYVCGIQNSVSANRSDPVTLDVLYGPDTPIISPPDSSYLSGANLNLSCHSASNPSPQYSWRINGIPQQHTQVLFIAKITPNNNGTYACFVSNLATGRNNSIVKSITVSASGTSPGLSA
Nature of the assay: antigen binding activity, summary table; assay not named on the sheet.

Changes are numbered by the printed parent chain.

T1 sequence (P35968 20-764 limits assumed): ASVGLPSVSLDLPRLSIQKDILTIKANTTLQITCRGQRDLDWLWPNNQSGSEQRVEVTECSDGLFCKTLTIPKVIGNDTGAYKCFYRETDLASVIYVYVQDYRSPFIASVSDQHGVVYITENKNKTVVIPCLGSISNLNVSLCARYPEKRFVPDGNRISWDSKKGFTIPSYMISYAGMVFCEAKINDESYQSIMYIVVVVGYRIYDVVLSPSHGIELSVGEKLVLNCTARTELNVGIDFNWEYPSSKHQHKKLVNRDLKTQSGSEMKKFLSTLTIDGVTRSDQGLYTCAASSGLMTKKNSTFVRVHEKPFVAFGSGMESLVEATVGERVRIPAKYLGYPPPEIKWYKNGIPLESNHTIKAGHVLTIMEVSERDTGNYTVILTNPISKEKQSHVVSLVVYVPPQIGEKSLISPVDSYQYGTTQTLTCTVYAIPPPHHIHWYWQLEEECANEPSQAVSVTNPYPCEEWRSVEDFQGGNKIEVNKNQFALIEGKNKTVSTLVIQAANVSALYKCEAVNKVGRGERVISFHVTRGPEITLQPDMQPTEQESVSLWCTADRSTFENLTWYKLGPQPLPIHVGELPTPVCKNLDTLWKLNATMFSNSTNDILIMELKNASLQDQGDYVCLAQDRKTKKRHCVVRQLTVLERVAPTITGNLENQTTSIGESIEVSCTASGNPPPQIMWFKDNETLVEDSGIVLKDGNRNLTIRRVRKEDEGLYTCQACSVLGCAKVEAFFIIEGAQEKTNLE

B1: 3VGR19-CD-H (VHH)
VHH: QVQLQESGGGSVQAGGSLRLSCVASGYSVSKNSMGWFRQAPGKEREGVAGINEGGTATYYANSVKGRFTISQDNAKNTVYLQMNTLKPEDTAIYYCAAGSPDPPPLIESVVKYWGQGTQVTVSS
notes: sdAb-cytosine deaminase fusion with C-terminal His-tag, made in E. coli; Built from parts; An N-terminal Met may precede the sdAb
As to B1, in assay [1], the binding result is “binds”.

B2: 3VGR10-CD-H (VHH)
VHH: B1 VHH with K76R
On to B2, for which, in assay [1], the binding result is reported as “binds”.

B3: 4VGR17-CD-H (VHH)
VHH: B1 VHH with E53Y, S109G
notes: sdAb-cytosine deaminase fusion with C-terminal His-tag; Built from parts
On to B3, for which the “EC50 (read off the curve)” value in assay [2] is ~0.02 µg/mL.

B4: GE10-CD-H (other)
antigen binding fragment-CD fusion: MLHLWVPEPWTQTGGGGSGGGGSGGGGSVTGGMASKWDQKGMDIAYEEAALGYKEGGVPIGGCLINNKDGSVLGRGHNMRFQKGSATLHGEISTLENCGRLEGKVYKDTTLYTTLSPCDMCTGAIIMYGIPRCVVGENVNFKSKGEKYLQTRGHEVVVVDDERCKKIMKQFIDERPQDWFEDIGEGSSHHHHHH
As to B4, the binding result in assay [3] is on record as “binds”.

B5: GE11-CD-H (other)
antigen binding fragment-CD fusion: B4 antigen binding fragment-CD fusion with L2Y, L4W, W5Y, V6G, P7Y, E8T, W10Q, T11N, Q12V, T13I
Take B5: the binding result in assay [3] is listed as “no binding”.

B6: VHH122-CD-H (VHH)
VHH: EVQLQESGGGLVQAGDSLRLSCLVSGRSFNSYTMGWFRQAPGKEREFVAAILWSGPTTYYADSVKGRFTISRDNAKNTVYLQMNSLKPEDTAVYYCAAALGVLVLAPGNVYSYWGQGTQVTVSS
notes: as for B3
Take B6: in assay [4], the “EC50 (read off the curve)” value was ~0.8 nM.

B7: 47D5-CDoem3-H (VHH)
VHH: KVQLVESGGGLVQPGGSLRLSCAASGSIFGFNDMAWYRQAPGKQRELVALISRVGVTSSADSVKGRFTISRVNAKDTVYLQMNSLKPEDTAVYYCYMDQRLDGSTLAYWGQGTQVTVSS
notes: as for B3
For the molecule B7, the “EC50 (read off the curve)” value in assay [5] was ~0.2 nM.

B8: DOM-16-39-CD-H (VHH)
sdAb-CD fusion: MDIQMTQSPTSLSASVGDRVTITCRASQWIGNLLDWYQQKPGEAPKLLIYYASFLQSGVPSRFSGGGFGTDFTLTISSLQPEDFATYYCQQANPAPLTFGQGTKVEIKRGGGGSGGGGSGGGGSVTGGMASKWDQKGMDIAYEEAALGYKEGGVPIGGCLINNKDGSVLGRGHNMRFQKGSATLHGEISTLENCGRLEGKVYKDTTLYTTLSPCDMCTGAIIMYGIPRCVVGENVNFKSKGEKYLQTRGHEVVVVDDERCKKIMKQFIDERPQDWFEDIGEGSSHHHHHH
In the case of B8, the binding result in assay [3] is recorded as “binds”.

B9: 4VGR38-CD-H (VHH)
VHH: QVQLQESGGGSVQAGGSLTLSCEVSGYSVNSNSMGWFRQAPGKEREGVAGINEGGVSTYYANFVQGRFTISQDNAKNMVYLQMNSLKPEDTAIYYCAAGAPDPPPLIESIVKYWGQGTQVTVSS
notes: as for B3
For the molecule B9, in assay [2], the binding result is reported as “binds”.

B10: BCD090-M2-CDoem3-H (VHH)
VHH: QVQLVQSGGGLVQAGGSLRLSCAFSGRTFSMYTMGWFRQAPGKEREFVAANRGRGLSPDIADSVNGRFTISRDNAKNTLYLQMDSLKPEDTAVYYCAADLQYGSSWPQRSSAEYDYWGQGTTVTVSS
As for B10, in assay [6], the “EC50 (read off the curve)” value was ~0.5 nM.

B11: 3VGR17-CD-H (VHH)
VHH: QVQLQESGGGSVQAGGSLRLSCAASGYTYCSYDMGWYRQAPGKEREFVSAIDNYGRTGYADSVKGRFTISQDNAKNTSYLQMNSLKPEDTAIYYCKVDVCPDPSRPGRPGYWGQGTQVTVSS
Take B11: the binding result in assay [1] is recorded as “binds”.

B12: Inherbin3-CD-H (other)
antigen binding fragment-CD fusion: MLVYNKLTFQLEPNPHTKGGGGSGGGGSGGGGSVTGGMASKWDQKGMDIAYEEAALGYKEGGVPIGGCLINNKDGSVLGRGHNMRFQKGSATLHGEISTLENCGRLEGKVYKDTTLYTTLSPCDMCTGAIIMYGIPRCVVGENVNFKSKGEKYLQTRGHEVVVVDDERCKKIMKQFIDERPQDWFEDIGEGSSHHHHHH
For the molecule B12, the binding result in assay [3] is “binds”.

B13: Inherbin1-CD-H (other)
antigen binding fragment-CD fusion: B12 antigen binding fragment-CD fusion with L2M, V3L, K6P, L7T, F9Y, L11M, E12D, P13V, H16E, T17G
With B13, the binding result in assay [3] was “no binding”.

B14: NbCEA5-CDoem3-H (VHH)
VHH: QVQLVESGGGSVQAGGSLRLSCAASGDTYGSYWMGWFRQAPGKEREGVAAINRGGGYTVYADSVKGRFTISRDTAKNTVYLQMNSLRPDDTADYYCAASGVLGGLHEDWFNYWGQGTQVTVSS
notes: as for B3
In the case of B14, the binding result in assay [7] was “binds”.

B15: 2D3-CDoem3-H (VHH)
VHH: EVQLVESGGSLVQPGGSLRLSCAASGFTFDDYAMSWVRQVPGKGLEWVSSINWSGTHTDYADSVKGRFTISRNNANNTLYLQMNSLKSEDTAVYYCAKNWRDAGTTWFEKSGSAGQGTQVTVSS
notes: as for B3
With B15, the “EC50 (read off the curve)” value in assay [5] is ~0.1 nM.

By EC50 (read off the curve) is commonly meant the concentration at which the effect is half-maximal. A high value points to a less potent agent.

(Values after patent US20220056149A1 (LUMOSA THERAPEUTICS, published 2022).)
